In publication PMC10400037, “Novel players in organogenesis and flavonoid biosynthesis in cucumber glandular trichomes”:

T1: MBP-CsTBH (TINY BRANCHED HAIR, HD-ZIP) (Cucumis sativus, UniProt A0A0A0LED8 1-240)
T1 sequence: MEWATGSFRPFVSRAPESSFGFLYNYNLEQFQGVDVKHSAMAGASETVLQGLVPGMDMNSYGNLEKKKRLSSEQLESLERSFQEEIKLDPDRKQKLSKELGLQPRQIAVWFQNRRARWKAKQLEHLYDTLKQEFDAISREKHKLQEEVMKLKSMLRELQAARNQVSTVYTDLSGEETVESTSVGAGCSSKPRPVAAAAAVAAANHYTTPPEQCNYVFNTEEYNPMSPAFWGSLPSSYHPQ

B1: CsF3H promoter probe (dsDNA)
DNA 1: GATTTGAGAAAATTATTGGGCTGGATTGT
DNA 2: ACAATCCAGCCCAATAATTTTCTCAAATC
B2: Cs4CL promoter probe (dsDNA)
DNA 1: CTTCCAAATTAATTATTGTTTTATGCAAA
DNA 2: TTTGCATAAAACAATAATTAATTTGGAAG
B3: CsFLS promoter probe (dsDNA)
DNA 1: AATTTAAAATAATTATTGGGATTTCAAAC
DNA 2: GTTTGAAATCCCAATAATTATTTTAAATT

Target: T1, MBP-CsTBH (TINY BRANCHED HAIR, HD-ZIP)
Test: EMSA; EMSA kit (Beyotime GS009) reaction buffer, room temperature, 6% native PAGE; salt and pH not stated
Conditions: protein: recombinant; chain copies: 2; blunt

Binding result, binds:
B1
B2
B3
